# Experimental data taken from the nanobody polyreactivity screen of Harvey et al. (2022).
# Assay: yeast display, Sf9 membrane polyspecificity reagent, FACS + sequencing; frameworks hold sequencing errors
# How it was run: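 A synthetic nanobody library was expressed on Saccharomyces cerevisiae BJ5465 by galactose induction for 36–48 hours. The library was stained for 1 hour at 4 °C with 10% biotinylated, detergent-solubilized Sf9 membrane reagent and enriched with streptavidin microbeads before FACS. Low and high (top ~1%) gates were set on anti-HA fluorescence for expression and streptavidin fluorescence for reagent binding, and each polyreactivity label reflects the gate of origin.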
row,Sequence,polyreactivity (PSR sort gate)
1,QVQLVESGGGLVQAGGSLRLSCAASGGIFSYAMGWYRQAPGKERELVAAISRSAGITYYADSVKGRFTISRDNAKNTVYLQMNSLKPEDTAVYYCAASYYSYLYYSWGQGTQVTVSS,high polyreactivity
2,QVQLVESGGGLVQAGGSLRLSCAACGSIVVGYAMGWYRQAPGKERELVAVITSDGSTNYADSVKGRFTISRDNAKHTVYLPMNSLKPEDTAVYYCAADPWLGTGRYDYWGQGTQVTVST,low polyreactivity
3,QVQLVESGGGLVQAGGSLRLSSAASGLTFYRNAMGWYRQAPGKERELVAGISSSGASTYYADSVKGRFTISRDNAKNTVYLQMNSLKPEDTAVYYCAVRFYGRYLRYNYWGQGTQVTVSS,high polyreactivity
4,QVQLVESGGGLVQAGGSLRLSCAASGNIFYTYAMGWYRQAPGKERELVAAITWSGGSTYYADSVKGRFTISRDNAKNTVYLQMNSLKPEDTAVYYCAAESLGYYYSGGYYSIYDHWGQGTQVTVSS,high polyreactivity
5,QVQLVESGGGLVQAGGSLRLSCAASGGTFYSYAMGWYRQAPGKERELVAAISRRGGSTYYADSVKGRFTISRDNAKNTVYLQMNSLKPEDTAVYYCNTYIYQVRDDYWGQGTQVTVSS,high polyreactivity
6,QVQLVESGGGLVQAGGSLRLSCAASGSTFRFNTMGWYRQAPGKERELVAAITRGGSTNYADSVKGRFTISRDNAKNTVYLQMNSLKPEDTAVYYCNTTRYSVRKYDYWGQGTQVTVSS,low polyreactivity
7,QVQLVESGGGLVQAGGSLRLSCAASGSIFTWNGMGWYRQAPGKERELVAAISNGASTNYAESVKGRFTISRDNAKNTVYLQMNSLKPEDTAVYYCAAKSTGRYDYWGQGTQVTVSS,low polyreactivity
8,QVQLVESGGGLDQAGGSLRLSWAASGFTFKNYTMGWYRQAPGKERELVAAISKSGDITYYADSVKGRFTISRDNAKNTVYLQMNSLKPEDTAVYYCNAPRRNWSYDYWGQGTQVTVSS,high polyreactivity
9,QVQLVESGGGLVQAGGSLRLSCAASGFIFYYNDMGWYRQAPGKERELVAAISGGVGSTYYADSVKGRFTISRDNAKNTVYLQMNSLKPEDSAVYYCATRRYSLTYGLGYDYWGQGTQVTVSS,low polyreactivity
10,QVQRVESGGGLVHAAGSRRLSCAASGSIFWPYAMGWYRLAPGKEREFVAPISSSGSRTHYADSVKGRFTISRDTAKNTVYLQMNSLKPEDTAVYYCATDSRVITWYGGVEFDYWGQGTQVTVSS,low polyreactivity
11,QVQHVESRGGLLQAGGSLRLSCAASGRTLSFYGMGWYRQPPGKERELVAAISSSGSRTYYADSVKGRFTISRDNAKNTVYLQMNSLKPEHTAVYYCNALRIYHHYEYDYWGQGTQVTVSS,high polyreactivity
12,QVQLVESGGGLVQAGGSLRLSCAASGRIFGLYAMGWYRQAPGKERELVAAITSSTGSTYYADSVKGRFTISRDNAKNTVYLQMNSLKPEDTAVYYCAARRYGRNWHYDYWGQGTQVTVSS,high polyreactivity
13,QVQLVESGGGLVQAGGSLRLSCAASGRTLYGNVMGWYRQAPGKERELVAAISRRGGSTSYADSVKGRFTISRDNAKNTVYLQMNSLKPEDTAVYYCAAGRQRYAFKYYYWGQGTQVTVSS,high polyreactivity
14,QVQLVESGGGLVQAGGSLRLSCAASGNIFDHYAMGWYRQAPGKERELVASITDSGDSTSYADSVKGRFTISRDNAKNTVYLQMNSLKPEDTAVYYCAADPYSVYGGDYWGQGTQVTVSS,low polyreactivity
15,QVQLVESGGGLVQAGGSLRLSCAASGRTFPINAMGWYRQAPGKERELVASIRWTDGTTYYADSVKGRFTISRDSAKNTVYLQMNSLKPEDTAVFYCAADAEGSASKYDYWGQGTQVTVSS,low polyreactivity
16,QVQLVESGGGLVQAGGSLRLSCAASGRIFGLYAMGWYRQAPGKERELVAAISWSGGRTYYADSVKGRFTISRDNAKNNVYLQMNSLKPEDTAVYYCAARSYYRSQYGFDYWGQGTQVTVSS,high polyreactivity
17,QVQLVESGGGLVQAGGSLRLSCAASGSYLRYYAMGWYRQAPGKERELVAAISRSGTKTYYADSVKGRFTISRDNAKKTVYLQMNSLKPEDTAVYYCAARGYYRDYDSWGQGTQVTGSS,high polyreactivity
18,QVQLVESGGGLVQAGGSLRLSCAASGRIFGYYAMGWYRQAPGTERELVASIRRGTRTNYADSVKGRFTISRDNAKNTVYLQMNSLKPEDTAVYYCAATRFQFTTTPWYDYWGQGTQVTVSS,high polyreactivity
19,QVQLVESGGGLVQAGGSLRLSCAASGRTFGQNTMGWYRQAPGIERELVAAINWSGGSTYYADSVKGRFTISRDNAKNTVYLQMNSLKPEDTAVYYCAVRGYWGQGTQVTVSS,low polyreactivity
20,QVQLVESGGVLVQAGGSLRLSCAASGNIFDQNAMGWYRQAPGKERELVAAITRSGSTTYYADSVKGRFTISRDNAKNTVYLQMNSLNPEDTAVYYCAAKVYAYRTYKMYYWGQGTQVTVSS,high polyreactivity
21,QVQLVESGGGLVQAGGSIRLSCAASGSTFPGNAMGWYRQAPGKERELVASISGGGDSTYYADSVKGRFTISRDNAKNTVYLQMNSLKPEDTAVYYCAADTQGSVRPGYDYWGQGTQVTVSS,low polyreactivity
22,QVQLVESGGGLVQAGGSLRLSCADSGFTFPSYAMGGYRQAPGKERELVDVISRRGGSTYYADSVKGRFTISRDNAKNTVYLQMNSLKPEDTAVYYCARPRQPGSLYGYWGQGTQVTVSS,high polyreactivity

row,Sequence,polyreactivity (PSR sort gate)
1,QVQLVESGGGLVQAGGSLRLSCPDSVFTFGATVMGWYRQAPGKEREFVAGITWSGDSTYYADSVKGRFTISRDNAKNTVYFQMNSLKPEDTAVYYCAADVYDGAYILDYDYWGQGTQVTVSS,low polyreactivity
2,HVQHVDSGGGLVQAGGSLRLSFAAYGRIFVNNAMGWYRQATGKERELVAAISQNGGRTYYADSVKGRFTISRDNAKNTVYLQMNSLKPEDTAVYYCAAGQARAGLIGGYWGQGTQVTVSS,high polyreactivity
3,QVQLVESGGGLVQAGGSLRLSCAASGRTFTYNTMGWYRQETGKQRELVAAISSSGGSTYYADSVKGRFTISRDNAKNTVYLQMNSLKPEDTAVYYCAKRYFSSSRYYYWGQGTQVTVSS,high polyreactivity
4,QVQLVESGGGLVQAGGSLRLSCAASGSTFRGYAMGWSRQAPGKERELVATITSGGSTKFADSVKGRVTISRDNAKNTVYLQMNSLKPEDTAVYYFNAGPRSWSPYRHWVDFWGQGTQVTVSS,low polyreactivity
5,QVQLVESGGGLVQAGGSLRLSCAASGSTFTRYAMGWYRQAPGTERECVAGITSIGGRTYYADSVKGRFTISRDNAKNTVYLQMNSLKPEDTAVYYCAKRWGRYYYPYDYWGQGTQVTVSS,high polyreactivity
6,QVQLVESGGGLVQAGGSLRLSCAASGITFYRYAMGWYRQARGKERELVADITSSGGSTYYADSVKGRFTISRDNAKNTVYLQMNSLKPEDTAVYYFNAAYYFSRIVYPYDYWGQGTQVTVSS,high polyreactivity
7,QEQLQESGGGLVQAGGSLRLSCAASGSISQAWYMGWYRQAPGKERELVAAINVGAITYYADSVKGRFSISRDNAKNTVYLPMNSLTPEDTGVYYCAVDQYSEAYYDYWGQGTQATVSS,high polyreactivity
8,QVQLVESGGGLVQAGGSLRLSCAASGRTFSHYAMGWYRKAPGKERELVDTITRNGGITYYADSVKGRFTISRDNAKNTVYLQMNSLKPEDTAVYYCNTETYHVRRLFDYWGQGTQVTVSS,low polyreactivity
9,QVQLVESWVGLVQAGGSLRLSCAASGNTFKYYDMGWYRQAPGKERELVATISRTAGSTYYADSVKGRFSISRDYAKNTVYLQMNSLKPEDTAVYYCNKDRGHPFKYDYWGQGTQVTVSS,low polyreactivity
10,QVQLVESGGGLVQAGGSLRLSCAASGSTYTGYTMGWYRQAPGKERELVAAITYRGGSTYYADSVKGRITISRDNAKNTVYLQMNSLKREDTEVYYCAARSFFIMYYWGQGTQVTVSS,low polyreactivity
11,QVQLVESGGGLVQAGGSLRLSCAASGSIFDYNTMGWYRQAPGKERELVAAISSGGSTYYADSVKGRFTISRDNAKNTVYLQMNSLKPEDTAVYYCAARRAGWWGFYYWGQATQVTVSS,high polyreactivity
12,QVQLVESGGGLVQAGGSLRFSCADSGRTFRYYAMGWDIQARGKERELVAAISRGGRTNYGDSVKGRFTISRDNAKNTVYIQMNSLKPVDTAVYYCAVGGYSYYTVGYDYWGQGTQVTVSS,high polyreactivity
13,QVQLVESGGGIVQAGGSLPLICAASGFTFDWYALGWYRQAPGKERELVAAITTSGGTTYYADSVKGRFTMSRDNAKITVYLQMNSLKPEDTAVFYCAADADTDVFYILQEYDYWGQGTQVTVSS,low polyreactivity
14,QVQLVESGGGLVQAGGRLRLTCAASGFTFGRYAMGWYRQAPGKERDLVADITSGSGGTYYADSVKGRFTISRATAKNSVYLQMNSLKPEDTAVYYCATGSRSRGALRYAHFDFWGQGTQVSVSS,high polyreactivity
15,QVQLVESGGGLVQAGGSLRLSCAASGITFTSYAMGWYRQAPGKERELVAAISAGGGRTYYADSVKGRFTISRDNAKNTVYLQMNSLKPEDTAVYYCAVKYPELRTWGYYYWGQGTQVTVSS,high polyreactivity
16,QVQLVESGGGLVQAGRSLRLSCAASGFTFVWYAMGWYRQAPGTERELVAAISRRGTRTYYADSVKGRFTISRDNAKNTVYLQMNSLKPEDTAVYYCAASNGYQAVTYDYWGQGTQVTVSS,high polyreactivity
17,QVQLVESGGGLVQAGGSLRLSCAASGRTFGINAMGWYRQAHGKERELVAVISFGDGGTYYADSVKGRFTISRDNAKNTVYLQMNSLKPEDTAVYYCATDYQSTSVWGGHFVINPYDYWGQGTQVTVSS,low polyreactivity
18,QVQLVESGGGLVQAGGSLRLSCAPSGFTFRGNAMGWYRQAPGKERELVATISRGGNTNYADSVKGRCTISRDNAKNTVYLQMNSLKPEDTAVYYCAAVSFIRSKVAYNYWGQGTQVTVSS,low polyreactivity
19,QVQLVESGGGLVQAGGTLRLSCAASGSTFEYYAMGSYRQAPGKEREFVAAISSGPSTTYADSVKGRFTISRDNSKNTVYLQMNSLKPEDTAVYYCARRDGTTQALFGYDYWGQGTQVTVSS,low polyreactivity
20,QVQLVESGGGLVQAGGSLRFSCSASGSIFGYNTMGWYRPAPGKERQLVAAISKSGGSTYYADSVKGRFTISRDNAKNTVYLQMNSLKPEDSAVYYCATYAKQLSPYYYWGQGIQVTVSS,high polyreactivity
21,QVQLVESGGGLVQAGGSLRLSCAASGSTFQTYAMGWSRQAPGKERELVAAISFNGGSTYYADSVKGRFTISRDNAKNTVYLQMNSLKPEDTAVYYCAVEYTWATALYDGRHDYWGQGTQVTVSS,high polyreactivity
